Results on three substances are retold here after US20170319722A1.

Assay [1] deals with His-tagged CD8α human recombinant protein (TP760215, Origene) (human) (UniProt P01732). The assay can be described thus: sandwich ELISA; biotinylated ligand on NeutrAvidin plate, His-tagged CD8α titrated, anti-His-AP detection.
The target in assay [2] is CD8 on human peripheral blood mononuclear cells (PBMCs) (human) (UniProt P01732). As to the kind of experiment: flow cytometry, human PBMCs, co-stained with CD3-APC mAb. A general note: In flow cytometry, cells or beads pass a laser one at a time.
CD8 on human peripheral blood mononuclear cells (PBMCs) (human), sequence (P01732 22-235): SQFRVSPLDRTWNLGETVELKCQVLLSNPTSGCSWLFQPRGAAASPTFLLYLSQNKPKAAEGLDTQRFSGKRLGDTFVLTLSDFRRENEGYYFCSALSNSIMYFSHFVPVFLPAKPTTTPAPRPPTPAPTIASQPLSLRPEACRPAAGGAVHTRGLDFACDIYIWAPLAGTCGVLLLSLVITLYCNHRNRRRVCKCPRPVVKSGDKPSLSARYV

His-tagged CD8α human recombinant protein (TP760215, Origene) (human), sequence (P01732 22-182 limits assumed): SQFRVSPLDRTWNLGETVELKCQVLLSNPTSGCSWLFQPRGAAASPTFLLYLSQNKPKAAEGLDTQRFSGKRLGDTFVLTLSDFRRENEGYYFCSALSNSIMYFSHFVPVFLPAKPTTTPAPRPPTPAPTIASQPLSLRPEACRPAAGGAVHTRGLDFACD

The term EC50 denotes the concentration that produces a half-maximal response. With biotin-PEG3-Cy(slrfG) (peptide), the EC50 in assay [1] came to 0.02 µM.

In assay [2], “human CD8-FITC mAb (clone: RPA-T8) (#561947, BD Biosciences) (antibody)” yielded a % of cells detected (Q2) of 11.2% and a % of cells detected (Q4) of 2.1%. As for biotin-PEG3-Cy(yGGvr) (peptide), the EC50 in assay [1] was found to be 0.01 µM.
